Data: patent US20260232732A1 (FUNDACI INSTITUT DE RECERCA CONTRA LA LEUC MIA JOSEP …, published 2026)
Blank lines part the entries; values can stand above or below the binder they belong to. Where no end group is shown, it is not given here. The star is where a group is joined. Biotin = O=C1N[C@H]2[C@H](CS[C@H]2CCCCC(=O)*)N1

Key:
naked peptide MEDYVNFNFT = target: T1, naked peptide MEDYVNFNFT (human); assay: ELISA, naked peptide
T1 peptide: MEDYVNFNFT

naked peptide TDFTSPIPNM = target: T2, naked peptide TDFTSPIPNM (human); assay: ELISA, naked peptide
T2 peptide: TDFTSPIPNM

naked peptide SSMEDYVNFN = target: T3, naked peptide SSMEDYVNFN (human); assay: ELISA, naked peptide
T3 peptide: SSMEDYVNFN

naked peptide MTPTDFTSPI = target: T4, naked peptide MTPTDFTSPI (human); assay: ELISA, naked peptide
T4 peptide: MTPTDFTSPI

naked peptide DYGSESTSSM = target: T5, naked peptide DYGSESTSSM (human); assay: ELISA, naked peptide
T5 peptide: DYGSESTSSM

naked peptide SMEDYVNFNF = target: T6, naked peptide SMEDYVNFNF (human); assay: ELISA, naked peptide
T6 peptide: SMEDYVNFNF

naked peptide YVNFNFTDFY = target: T7, naked peptide YVNFNFTDFY (human); assay: ELISA, naked peptide
T7 peptide: YVNFNFTDFY

naked peptide YCEKNNVRQF = target: T8, naked peptide YCEKNNVRQF (human); assay: ELISA, naked peptide
T8 peptide: YCEKNNVRQF

naked peptide MADDYGSEST = target: T9, naked peptide MADDYGSEST (human); assay: ELISA, naked peptide
T9 peptide: MADDYGSEST

naked peptide TDFYCEKNNV = target: T10, naked peptide TDFYCEKNNV (human); assay: ELISA, naked peptide
T10 peptide: TDFYCEKNNV

naked peptide TSSMEDYVNF = target: T11, naked peptide TSSMEDYVNF (human); assay: ELISA, naked peptide
T11 peptide: TSSMEDYVNF

naked peptide SESTSSMEDY = target: T12, naked peptide SESTSSMEDY (human); assay: ELISA, naked peptide
T12 peptide: SESTSSMEDY

naked peptide FNFTDFYCEK = target: T13, naked peptide FNFTDFYCEK (human); assay: ELISA, naked peptide
T13 peptide: FNFTDFYCEK

naked peptide TSPIPNMADD = target: T14, naked peptide TSPIPNMADD (human); assay: ELISA, naked peptide
T14 peptide: TSPIPNMADD

naked peptide KNNVRQFAS = target: T15, naked peptide KNNVRQFAS (human); assay: ELISA, naked peptide
T15 peptide: KNNVRQFAS

naked peptide IPNMADDYGS = target: T16, naked peptide IPNMADDYGS (human); assay: ELISA, naked peptide
T16 peptide: IPNMADDYGS

[1] = target: T17, biotin-peptide MEDYVNFNFT (human); assay: ELISA biotin-peptide; scFv 1.25 ug/mL; repI
T17 peptide: Biotin-MEDYVNFNFT
Method: (§1) The peptides were synthesized naked or with a N-terminal Biotin modification with a purity of >98%. All four scFvs were verified by ELISA that can be detected with anti-His antibodies. ELISA was performed for scFv-peptide binding validation. Briefly, naked peptides were coated (50 μg/mL) in 0.58M carbonate-bicarbonate buffer pH9.5, 100 μL/well, 4° C. O/N. Then after blocking (3% BSA-PBS, 300 μL/well 37° C. 1.5 h) and washing (PBS+Tween-20 0.05% v/v (0.05% PBST), wells were incubated with each purified scFv antibody at concentration of 1 μg/mL in PBS at 37° C. 1 h. After washing (0.05% PBST), wells were incubated with secondary antibodies (goat anti-His IgG-HRP) in PBS, 37° C., 30 min. After washing, and incubation with TMB substrate, reactions were stopped with 2M HCl and reading was quantified at OD450.
(§2) ELISA with biotin-conjugated peptides (5 μg/mL) was performed very similar to described above with minor modifications.
(§3) A full curve ELISA was performed for each positive scFv/biotin-peptide pair in order to confirm previous results. Tables 15-17 show ELISA results of the dose-dependent full curve for each positive peptide with scFv “CCR9_HUM”, “Comp-2” and “Comp-3”, respectively.

[2] = target: T18, biotin-peptide TSSMEDYVNF (human); assay: ELISA biotin-peptide; scFv 1.25 ug/mL; repI
T18 peptide: Biotin-TSSMEDYVNF
Method: as §1, §2, §3

[3] = target: T19, biotin-peptide SMEDYVNFNF (human); assay: ELISA biotin-peptide; scFv 1.25 ug/mL; repI
T19 peptide: Biotin-SMEDYVNFNF
Method: as §1, §2, §3

[4] = target: T20, biotin-peptide SSMEDYVNFN (human); assay: ELISA biotin-peptide; scFv 1.25 ug/mL; repI
T20 peptide: Biotin-SSMEDYVNFN
Method: as §1, §2, §3

[5] = target: T17, biotin-peptide MEDYVNFNFT; assay: ELISA biotin-peptide; scFv 2.5 ug/mL; repI
Method: as §1, §2, §3

[6] = target: T18, biotin-peptide TSSMEDYVNF; assay: ELISA biotin-peptide; scFv 2.5 ug/mL; repI
Method: as §1, §2, §3

[7] = target: T19, biotin-peptide SMEDYVNFNF; assay: ELISA biotin-peptide; scFv 2.5 ug/mL; repI
Method: as §1, §2, §3

[8] = target: T20, biotin-peptide SSMEDYVNFN; assay: ELISA biotin-peptide; scFv 2.5 ug/mL; repI
Method: as §1, §2, §3

[9] = target: T21, Peptide 3-BSA (SSMEDYVNFN-C conjugated to BSA) (human); assay: ELISA; Ab 1 ug/mL; repI
T21 peptide: SSMEDYVNFNC(BSA)
Method: (§4) In brief, plates with each non-conjugated peptide (50 μg/mL) or BSA-conjugated peptide (5 μg/mL) were coated in 0.58M carbonate-bicarbonate buffer pH9.5, 100 μL/well, at 4° C. […] After washing, wells were incubated with the 3, 3′,5,5′-Tetramethylbenzidine (TMB) HRP substrate and reactions were stopped with 2M HCl and OD450 was recorded.

[10] = target: T22, Peptide 2-BSA (GSESTSSMED-C conjugated to BSA) (human); assay: ELISA; Ab 1 ug/mL; repI
T22 peptide: GSESTSSMEDC(BSA)
Method: as §4

[11] = target: T23, Peptide 3, non-conjugated (SSMEDYVNFN-C) (human); assay: ELISA; Ab 1 ug/mL; repI
T23 construct: With the extra C-terminal Cys
T23 peptide: SSMEDYVNFNC
Method: as §4

[12] = target: T24, BSA (negative control coating) (bovine, UniProt P02769 25-607); assay: ELISA; Ab 1 ug/mL; repI
T24 construct: also called Negative control BSA
Method: as §4

[13] = target: T25, Peptide 4-BSA (SMEDYVNFNF-C conjugated to BSA) (human); assay: ELISA; Ab 1 ug/mL; repI
T25 peptide: SMEDYVNFNFC(BSA)
Method: as §4

[14] = target: T26, antigen peptide-BSA (immunisation peptide #1 MADDYGSESTSSMEDYVNFNF-C conjugated to BSA) (human, extra C-terminal Cys conjugated to BSA); assay: ELISA; Ab 1 ug/mL; repI
T26 construct: also called Positive control antigen peptide-BSA; MADDY peptide
T26 peptide: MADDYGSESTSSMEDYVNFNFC
Method: as §4

[15] = target: T25, Peptide 4-BSA (SMEDYVNFNF-C conjugated …); assay: ELISA; Ab 0.5 ug/mL; repII
Method: as §4

T24 sequence (P02769 25-607 limits assumed): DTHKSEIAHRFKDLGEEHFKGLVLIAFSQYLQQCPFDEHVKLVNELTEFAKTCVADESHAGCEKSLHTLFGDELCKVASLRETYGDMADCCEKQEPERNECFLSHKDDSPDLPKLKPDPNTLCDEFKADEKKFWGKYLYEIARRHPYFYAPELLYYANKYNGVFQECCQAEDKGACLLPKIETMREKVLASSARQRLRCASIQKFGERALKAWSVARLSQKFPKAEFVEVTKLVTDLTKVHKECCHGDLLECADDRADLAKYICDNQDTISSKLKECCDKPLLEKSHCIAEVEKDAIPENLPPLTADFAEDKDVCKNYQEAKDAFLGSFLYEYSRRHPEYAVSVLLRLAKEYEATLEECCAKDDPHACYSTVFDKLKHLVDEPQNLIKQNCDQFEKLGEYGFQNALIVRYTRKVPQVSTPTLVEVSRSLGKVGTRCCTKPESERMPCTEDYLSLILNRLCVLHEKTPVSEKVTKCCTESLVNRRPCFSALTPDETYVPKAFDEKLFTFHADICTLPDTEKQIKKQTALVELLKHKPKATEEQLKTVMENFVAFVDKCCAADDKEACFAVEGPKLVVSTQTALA

binding result (naked peptide MEDYVNFNFT): no binding (tested: 1 ug/mL)
binding result (naked peptide TDFTSPIPNM): no binding (tested: 1 ug/mL)
binding result (naked peptide SSMEDYVNFN): no binding (tested: 1 ug/mL)
binding result (naked peptide MTPTDFTSPI): no binding (tested: 1 ug/mL)
binding result (naked peptide DYGSESTSSM): no binding (tested: 1 ug/mL)
binding result (naked peptide SMEDYVNFNF): no binding (tested: 1 ug/mL)
binding result (naked peptide YVNFNFTDFY): no binding (tested: 1 ug/mL)
binding result (naked peptide YCEKNNVRQF): no binding (tested: 1 ug/mL)
binding result (naked peptide MADDYGSEST): no binding (tested: 1 ug/mL)
binding result (naked peptide TDFYCEKNNV): no binding (tested: 1 ug/mL)
binding result (naked peptide TSSMEDYVNF): no binding (tested: 1 ug/mL)
binding result (naked peptide SESTSSMEDY): no binding (tested: 1 ug/mL)
binding result (naked peptide FNFTDFYCEK): no binding (tested: 1 ug/mL)
binding result (naked peptide TSPIPNMADD): no binding (tested: 1 ug/mL)
binding result (naked peptide KNNVRQFAS): no binding (tested: 1 ug/mL)
binding result (naked peptide IPNMADDYGS): no binding (tested: 1 ug/mL)
B1: Comparative antibody 1 (Comp-1) scFv, SEQ ID NO: 10 from WO2023/037125 A1, His-tagged (scFv)
scFv: QVQLKESGPGLVQPSQTLSLTCTVSGFSVASYDMHWVRLPPGKGLEWMGIIWANGNTHYNSGLKSRLSISRDTSKSQVFLKMNSLQTEDTAIYFCTRGGFAYWGQGTLVTVSSGGGGSGGGGSGGGGSGGGGSDVVMTQTPVSLSVSLGGQVSISCRSSQSLVHNNGNTYLSWYLQKPGQSPQLLIYKVSNRFSGVSDRFSGSGSGTDFTLKISRVEPDDLGVYYCGQGTQYPTFGGGTKLELKHHHHHH

OD450 [1]: 1.54 OD
OD450 [2]: 1.18 OD
OD450 [3]: 1.73 OD
OD450 [4]: 1.74 OD
OD450 [5]: 1.66 OD
OD450 [6]: 1.42 OD
OD450 [7]: 1.76 OD
OD450 [8]: 1.81 OD
B2: CCR9_HUM2 scFv (humanized anti-CCR9 scFv, SEQ ID NO: 17 with C-terminal 6xHis tag) (scFv)
scFv: QVQLVQSGAEVKKPGASVKVSCTASGYSFTDYIIYWVKQAHGQSLEWMGYIDPNNYNTRYSQKFQGKVTITVDKSSTSAYMELNSLTSDDTAVYYCARDVYWGQGTTVTVSSGGGGSGGGGSGGGGSGGGGSDVVMTQTPLSLSVTPGQPASISCRSSQSLVHSNGKTYLQWYLQKPGQSPKLLIYKVSNRFSGVPDRFSGSGSGTDFTLKISRVEAEDVGVYFCAQSTHVWTFGGGTKVEIKRAHHHHHH

OD450 [9]: 2.17 OD
OD450 [10]: 0.03 OD
OD450 [11]: 2.06 OD
OD450 [12]: 0.02 OD
OD450 [13]: 2.73 OD
OD450 [14]: 2.58 OD
OD450 [15]: 2.65 OD
B3: anti-CCR9 antibody clone 115 (murine, from hybridoma #115) (antibody, V domains shown)
VH: QVQLKQSGPELVKPGTSVRVSCTASGYSFTDYIIYWVKQSHGRSLEWIGYIDPNNYNTRYSQKFKGKATLTVDKSSTSAFMHLNSLTSDDSAVYYCARDVYWGQGTTLTVSS
VL: DVVMTQTPLSLTVSLGDQASISCRSSQSLVHSNGKTYLQWYLQKPGQSPKLLIYKVSNRFSGVPDRFSGSGSGTDFTLKISRVEAEDLGVYFCAQSTHVWTFGGGTKLEIKR
notes: Mouse IgG1
